Assay results taken from patent US20240368566A1, “PYK2-DERIVED PEPTIDES FOR INHIBITING INVADOPODIA-MEDIATED CANCER METASTASIS” (BAR-ILAN UNIVERSITY, priority 2023, published 2024).
“Also recorded” adds a separate entry of the source. Where no end group is shown, it is not given here.

What was measured:
[1] = target: T1, cortactin SH3 domain (Mus musculus, UniProt Q60598); test: NMR affinity determination, binding of peptides to purified cortactin-SH3; settings: for loss of affinity: mutant versus Pyk2-PRR2
T1 construct: nucleotides1468-1641); 6xHis (N, cleaved yes); made in house; host or cells: E. coli BL21 (DE3)
Experimental: The DNA sequence encoding the SH3 domain of the mouse cortactin SH3 domain (GenBank ID U03184; nucleotides1468-1641) was sub-cloned into a pET-28a plasmid (Novagen, Merck) in frame with the cleavable N-terminal 6×His tag. Isotopically labeled cortactin-SH3 for heteronuclear NMR experiments was expressed in transformed E. coli BL21 cells (DE3) grown in the presence of kanamycin (50 mg/1) and chloramphenicol (34 mg/1) at 37° C. in M9 minimal medium. For ^15N (^13C) labeling the medium contained 1 g/L of ^15NH4Cl (4 g/L ^13C6-glucose), and 0.25 g/l of appropriately labeled Celtone Base Powder (Cambridge Isotope Laboratories, Andover, MA) was added. For triple-labeled ^2H,^13C,^15N—SH3, expression began in 100 ml of the above medium grown to an OD600 of 0.4-0.5 and gently centrifuged. Pellets were then resuspended in 500 ml filter-sterilized D20-based ^15N-M9 supplemented with ^2H7-^13C6-glucose (2 g/1) and DCN-Isogro (0.25 g/1) to reach a final OD600 of −0.1. In both cases cells were then grown at 37° C. and induced with 0.5 mM isopropyl β-D-1-thiogalactopyranoside (IPTG) upon reaching OD600-0.8, followed by overnight growth at 27° C. To purify the SH3 domain, cells were harvested by centrifugation, subjected to a single freeze-thaw cycle, and resuspended in lysis buffer (50 mM NaPi pH 8.0, 300 mM NaCl, 1 mM dithiothreitol (DTT), 100 ml per liter of culture) supplemented with 1 tablet EDTA-free protease inhibitor cocktail (Merck) and benzamidine (5 mM). Cells were lysed by French press, followed by addition of benzamidine (final concentration 10 mM) and phenylmethylsulfonyl fluoride (PMSF, 1 mM), and the lysate was clarified by centrifugation. The supernatant was loaded on a HisTrap HP column (GE Healthcare, Chicago, IL, USA) equilibrated with lysis buffer and the protein eluted through a gradient (Buffer B: 50 mM NaPi pH 8.0, 100 mM NaCl, 300 mM imidazole, 1 mM DTT). To the fraction eluting at ˜40% B purified tobacco etch virus (TEV) protease (1:30 mol:mol) was added, and the mixture dialyzed overnight at 4° C. against dialysis buffer (50 mM NaPi at pH 8.0, 100 mM NaCl, 1 mM DTT). The dialysate was brought to a final concentration of ˜5 mM imidazole, filtered, and loaded onto a HisTrap column. The collected flowthrough was dialyzed against 20 mM Tris (pH 7.5), 1 mM DTT for 3 h to reach a final concentration of 10 mM NaCl. […]
Purified SH3 was dialyzed against NMR sample buffer (30 mM NaPi, pH ˜6.5) and concentrated to the desired concentration in an Amicon concentration tube (3 kDa MWCO) (Merck). […] For quantitative titrations, purchased peptides were dissolved in 100-300 μl NMR sample buffer, and samples at varying (SH3:PRR2 1:0-1:6, SH3 concentration constant at 0.1 mM) ratios were prepared. Fittings were performed with 5-6 measured points. […]

[2] = tested on: MDA-MB-231 cells; test: 3D scratch wound assay in Matrigel; type: cell-based, human; settings: MMP inhibitor, 25 µM
Experimental: The 3D scratch wound assay was performed as described in Meirson et al. Targeting invadopodia-mediated breast cancer metastasis by using ABL kinase inhibitors. Oncotarget 2018; 9: 22158-22183. Briefly, 96 well Image Lock microtiter plates (Essen Bioscience) were coated with 100 μg/ml Matrigel (cat #354234; Corning, New-York, NY, USA). Following overnight incubation at 37° C., MDA-MB-231 cells were plated at a final concentration of 350,000 cells/ml and allowed to adhere for 12-16 h in the presence of Pyk2-PRR or control peptides. Following wounding of the bottom Matrigel-cells layer, a top layer of Matrigel was added to a final concentration of 2 mg/ml and allowed to polymerize for 30 min at 37° C. Pyk2-PRR or control scrambled peptides were then added again in DMEM/10% FBS to a final concentration of 0.1, 1, or 5 μM, with or without the MMP inhibitor GM6001 ([…]). Plates were placed in a 37° C. heated chamber, and images were collected using the IncuCyte® Zoom platform (Essen Bioscience; 20×, NA 0.60, air objective). Phase images were collected every one hour for a total of 12 h using the IncuCyte® acquisition software.

[3] = tested on: MDA-MB-231 cells; test: 2D single-cell random migration assay; type: cell-based, human; settings: highest (higher) peptide concentration; 12 hours; compared to control peptide; data not shown
Experimental: The 2D single-cell random migration assay was performed as previously described in Genna et al. Pyk2 and FAK differentially regulate invadopodia formation and function in breast cancer cells. J Cell Biol 2018; 217: 375-395. In brief, 6-well microtiter plates were coated with 10 μg/ml fibronectin and blocked with 1% denatured BSA. Peptide pre-treated cells were plated at 20,000 cells/well in DMEM/10% FBS containing peptides and allowed to adhere for 12-16 h. Plates were placed in a 37° C. heated chamber, and images were collected using the IncuCyte® Zoom platform (Essen Bioscience, Ann Arbor, MI, USA; 20×, NA 0.60, air objective). Phase images were collected every one hour for a total of 12 h using the IncuCyte® acquisition software. Trajectory plots, accumulated distance (total cell path length), Euclidean distance (the shortest distance between the starting point and endpoint of migration), and velocity were calculated using the chemotaxis and migration tool (ibidi GMBH, Grafelfing, Germany).

[4] = tested on: MDA-MB-231 cells; test: Invadopodium precursor formation assay; type: cell-based, human; settings: at higher peptide concentrations
Experimental: The invadopodium precursor formation assay was performed as described in Genna et al., 2018 (supra). Briefly, gelatin was conjugated to Alexa 405 dye (Thermo Fisher Scientific). MatTek dishes were treated with 1 N HCl and coated with 50 μg/ml poly-L-lysine. A 0.2% gelatin solution was prepared in PBS, and a 1:20 mixture of Alexa 405-labeled gelatin/unlabeled gelatin was warmed to 37° C. before addition to the poly-L-lysine coated plates. Gelatin was cross-linked with 0.01% glutaraldehyde followed by quenching with 5 mg/ml sodium borohydride. 125,000 MDA-MB-231 cells were plated on Alexa 405-labeled gelatin plates in the presence of 0.1, 1, or 5 μM of Pyk2-PRR peptides or scrambled control for 4 h. At the end of incubation, cells were fixed in 3.7% paraformaldehyde, permeabilized with 0.1% Triton X-100, blocked with 1% FBS, 1% BSA in PBS, and labeled with anti-Tks5 and anti-cortactin. Images were acquired using an inverted fluorescent microscope (Leica AF6000; 63×, NA 1.4, oil objective, Leica LAS AF acquisition software) (Wetzlar, Germany) equipped with an ORCA-Flash 4.0 V2 digital CMOS camera (Hamamatsu Photonics, Shizuoka, Japan).

[5] = target: T2, cortactin-SH3 domain (mouse cortactin SH3 domain, GenBank ID U03184; nucleotides 1468-1641) (mouse, UniProt Q60598 490-546, isotopically labeled (15N, 13C and/or 2H) for NMR); test: NMR chemical shift titration (1H,15N-HSQC)
T2 construct: domain: SH3 domain; also called purified cortactin-SH3
T2 sequence (Q60598 490-546 limits assumed): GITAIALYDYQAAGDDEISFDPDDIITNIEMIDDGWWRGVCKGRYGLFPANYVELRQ

[6] = target: T2, cortactin-SH3 domain (mouse cortactin …); test: NMR chemical shift titration (1H,15N-HSQC), unlabeled peptide into 15N-SH3

Molecule: CC(=O)N[C@@H](C(=O)N[C@H](C)C(=O)N[C@H](Cc1ccccc1)C(=O)N[C@H](CCC(N)=O)C(=O)N[C@@H](CCC(=O)O)C(=O)N1CCC[C@H]1C(=O)N1CCC[C@H]1C(=O)N1CCC[C@H]1C(=O)N[C@@H](CCCCN)C(=O)N1CCC[C@H]1C(=O)N[C@@H](CO)C(=O)N[C@@H](CCCNC(=N)N)C(=O)N1CCC[C@H]1C(=O)N[C@@H](CCCCN)C(=O)N[C@@H](Cc1ccc(O)cc1)C(=O)N[C@H](CCCNC(=N)N)C(=O)N1CCC[C@@H]1C(=O)N1CCC[C@@H]1C(=O)N1CCC[C@@H]1C(N)=O)[C@H](C)O [SEQ ID NO: 9, TAFQEPPPKPSRPKYRPPP]
- Kd ([1]; capped Pyk2-PRR2 derivatives, NMR titration isotherm, unit inferred): 15 ± 2 µM

Molecule: TAFQEPPPKPSR [Δ720-726 deletion mutant, Pyk2-PRR2 truncated to positions 708-719]
- loss of affinity [1]: 27 fold

Molecule: CNC(=O)[C@H](Cc1c[nH]c2ccccc12)NC(=O)[C@@H](CC(=O)NO)CC(C)C [GM6001, reference compound]
- ECM invasion [2]: fully inhibited

Molecule: EFTGPPQKPPRLGAQS [Pyk2-PRR3, EFTGPPQKPPRLGAQS]
- 2D motility (accumulated and Euclidean distances, velocity) [3]: reduced 2D motility; also recorded: minor effect
- invadopodia formation and maturation [4]: minor effect

Molecule: TAFQEPPPKPSRPKARPPP [Y722A, Pyk2-PRR2 708-726 with Y722A substitution]
- loss of affinity [1]: 3.5 fold

B1: Pyk2-PRR2-Tf-tag, Ac-TAFQEPPPKPSRPKYRPPPHRPYIAH (SEQ ID NO: 8 + N-term cap) (peptide)
peptide: Ac-TAFQEPPPKPSRPKYRPPPHRPYIAH
notes: Pyk2-PRR2 (human Pyk2 708-726) followed by a C-terminal tag printed as HRPYIAH, the reverse of the Tf tag
- Kd [5]: 2 µM

Molecule: HAIYPRHTAFQEPPPKPSRPKYRPPP-NH2 [Tf-tag-Pyk2-PRR2, HAIYPRHTAFQEPPPKPSRPKYRPPP-NH2 (SEQ ID NO: 7 + C-term cap)]
- Kd [5]: 8 µM

B2: Pyk2-PRR3 peptide (SEQ ID NO: 2) (peptide)
peptide: EFTGPPQKPPRLGAQS
notes: Unlabeled synthetic peptide as used in the NMR titration
- Kd [6]: 650 µM
